Data as given in patent US20020146411A1, “Anticoagulant agents useful in treatment of thrombosis” (SmithKline Beecham Corporation, priority 1996, published 2002).
Residue numbers refer to the chain shown, from its start. “Also recorded” adds a separate entry of the source.

B1: SB 257732: humanized anti-Factor IX mAb, heavy chain F9HZHC 3-0 (SEQ ID NO: 89), light chain F9HZLC 3-0 (SEQ ID NO: 99) (antibody, V domains shown)
VH: MGWSCIILFLVATATGVHSQIQLVQSGSELKKPGASVKVSCKASGYTFTNYGMNWVRQAPGQGLEWMGWINTRNGKSTYVDDFKGRFVFSLDTSVSTAYLQISSLKAEDTAVYFCTREGNMDGYFPFTYWGQGTLVTVSS
VL: MGWSCIILFLVATATGVHSQIVLTQSPSSLSASVGDRVTITCRASSSVNYMHWYQQKPGKAPKPWIYATSNLASGVPSRFSGSGSGTDYTLTISSLQPEDFATYYCQQWSINPRTFGGGTKLEIKRTVV
B2: Chf9: mouse-human chimeric antibody directed against human Factor IX, chains F9CHLC and F9CHHC with BC2 variable regions (antibody)
heavy: QIQLVQSGPELKKPGETVKISCKASGYTFTNYGMNWVKQAPGKGLKWMGWINTRNGKSTYVDDFKGRFAFSLESSASTANLQIDNLKDEDTATYFCTREGNMDGYFPFTYWGQGTLVTVSA
light: QIVLSQSPAILSASPGEKVTMTCRASSSVNYMHWYQQKPGSSPKPWIYATSNLASGVPARFSGSGSGTSYSLTISRVEAEDAATYYCQQWSINPRTFGGGTKLEIK
B3: SB 249413: humanized anti-Factor IX mAb, heavy chain F9HZHC 1-0 (SEQ ID NO: 31), light chain F9HZLC 1-0 (SEQ ID NO: 44) (antibody, V domains shown)
VH: QVQLVQSGSELKKPGASVKVSCKASGYTFTNYGMNWVRQAPGQGLEWMGWINTRNGKSTYVDDFKGRFVFSLDTSVSTAYLQISSLKADDTAVYYCAREGNMDGYFPFTYWGQGTLVTVSS
VL: EIVLTQSPATLSLSPGERATLSCRASSSVNYMHWYQQRPGQAPRLLIYATSNLASGIPARFSGSGSGTDFTLTISSLEPEDFAVYYCQQWSINPRTFGGGTKVEIKR
B4: SB 249415: humanized anti-Factor IX mAb, heavy chain F9HZHC 1-1 (SEQ ID NO: 52), light chain F9HZLC 1-1 (SEQ ID NO: 57) (antibody, V domains shown)
VH: B3 VH with E46K, T74S, A97T
VL: B3 VL with R44K, L45P, L46W, I57V
B5: SB 257731: humanized anti-Factor IX mAb, heavy chain F9HZHC 1-1 (SEQ ID NO: 52), light chain F9HZLC 1-3 (SEQ ID NO: 78) (antibody, V domains shown)
VH: B3 VH with E46K, T74S, A97T
VL: MGWSCIILFLVATATGVHSQIVLTQSPATLSLSPGERATLSCRASSSVNYMHWYQQRPGQAPKPWIYATSNLASGVPARFSGSGSGTDYTLTISSLEPEDFAVYYCQQWSINPRTFGGGTKVEIK
B6: SB 249416: humanized anti-Factor IX mAb, heavy chain F9HZHC 1-1 (SEQ ID NO: 52), light chain F9HZLC 1-2 (SEQ ID NO: 62) (antibody, V domains shown)
VH: B3 VH with E46K, T74S, A97T
VL: B3 VL with R44K, L45P, L46W, I57V, F70Y
B7: IX LC/VII HC: construct containing the Factor IX light chain and Factor VII heavy chain (protein)
chain: YNSGKLEEFVQGNLERECMEEKCSFEEAREVFENTERTTEFWKQYVDGDQCESNPCLNGGSCKDDINSYECWCPFGFEGKNCELDVTCNIKNGRCEQFCKNSADNKVVCSCTEGYRLAENQKSCEPAVPFPCGRVSVSQTSKLTRIVGGKVCPKGECPWQVLLLVNGAQLCGGTLINTIWVVSAAHCFDKIKNWRNLIAVLGEHDLSEHDGDEQSRRVAQVIIPSTYVPGTTNHDIALLRLHQPVVLTDHVVPLCLPERTFSERTLAFVRFSLVSGWGQLLDRGATALELMVLNVPRLMTQDCLQQSRKVGDSPNITEYMFCAGYSDGSKDSCKGDSGGPHATHYRGTWYLTGIVSWGQGCATVGHFGVYTRVSQYIEWLQKLMRSEPRPGVLLRAPFP
B8: IX-A/VII: construct with the Factor IX gla and aromatic stack domains in Factor VII (protein)
chain: YNSGKLEEFVQGNLERECMEEKCSFEEAREVFENTERTTEFWKQYVDGDQCASSPCQNGGSCKDQLQSYICFCLPAFEGRNCETHKDDQLICVNENGGCEQYCSDHTGTKRSCRCHEGYSLLADGVSCTPTVEYPCGKIPILEKRNASKPQGRIVGGKVCPKGECPWQVLLLVNGAQLCGGTLINTIWVVSAAHCFDKIKNWRNLIAVLGEHDLSEHDGDEQSRRVAQVIIPSTYVPGTTNHDIALLRLHQPVVLTDHVVPLCLPERTFSERTLAFVRFSLVSGWGQLLDRGATALELMVLNVPRLMTQDCLQQSRKVGDSPNITEYMFCAGYSDGSKDSCKGDSGGPHATHYRGTWYLTGIVSWGQGCATVGHFGVYTRVSQYIEWLQKLMRSEPRPGVLLRAPFP

Target: T1, Recombinant human Factor IX (rhFIX) (Homo sapiens, UniProt P00740, T194A)
T1 construct: purchased Genetics Institute
T1 sequence (P00740 47-461 T194A): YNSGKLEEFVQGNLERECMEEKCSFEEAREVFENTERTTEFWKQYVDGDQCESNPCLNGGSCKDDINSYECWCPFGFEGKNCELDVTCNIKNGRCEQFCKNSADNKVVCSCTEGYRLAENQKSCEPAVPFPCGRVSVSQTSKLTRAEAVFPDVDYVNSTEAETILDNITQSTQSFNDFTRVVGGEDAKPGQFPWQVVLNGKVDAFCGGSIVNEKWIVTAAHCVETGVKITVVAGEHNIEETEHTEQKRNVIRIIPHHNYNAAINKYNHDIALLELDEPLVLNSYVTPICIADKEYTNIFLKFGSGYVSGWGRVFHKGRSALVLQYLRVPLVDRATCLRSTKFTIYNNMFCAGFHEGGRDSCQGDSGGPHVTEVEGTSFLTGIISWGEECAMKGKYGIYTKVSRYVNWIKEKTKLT
Experiment: BIAcore kinetics of Factor IX binding to mAb on protein A surface
Conditions: rhFIX 49 nM, 5 mM Ca2+, biosensor
Experimental: The kinetics of Factor IX binding to SB 249417 was assessed by BIAcore analysis with antibody bound to an immobilized protein A surface. Recombinant human Factor IX (rhFIX, Genetics Institute) at 49 nM was used and measurements performed in the presence of 5 mM Ca^2+. The interaction was characterized by rapid association, kass 2.0×10^5 M^−1 s^−1 and relatively slow off-rate, kdiss=4.1×10^−4 s^−1.

Row | kass | kdiss | Molecule
1 | 1.1e+06 M⁻¹ s⁻¹ | 0.0012 s⁻¹ | B1
2 | 240000 M⁻¹ s⁻¹ | 0.0003 s⁻¹ | B2
3 | 650000 M⁻¹ s⁻¹ | 0.0028 s⁻¹ | B3
4 | 750000 M⁻¹ s⁻¹ | 0.00018 s⁻¹ | B4
5 | 920000 M⁻¹ s⁻¹ | 0.00099 s⁻¹ | B5
6 | 520000 M⁻¹ s⁻¹ | 0.00041 s⁻¹ | B6

Tested on: BC2 antibody
Experiment: BiaCore binding of Factor IX/Factor VII constructs to immobilized BC2
Conditions: 200 nM construct, 25 mM MOPS pH 7.4, 0.15 M NaCl, 5 mM CaCl2
Experimental: A library of chimeric constructs composed of sequences of Factor IX spliced into the framework of the homologous protein Factor VII was constructed and used to map the epitope for the Factor IX BC2 mAb. See Cheung et al., Thromb. Res. 80, 419-427 (1995). Binding was measured using a BiaCore 2000 surface plasmon resonance device. The BC2 antibody was coupled directly to the chip using the NHS/EDC reaction. Binding was measured by 2 min of contact time at 20 uL/min with 200 nM of each of the given constructs in 25 mM MOPS, pH 7.4, 0.15 M NaCl, 5 mM CaCl2. Dissociation was monitored for 3 min using the same buffer with no protein. No binding was detected to the wild type construct in the presence of 50 mM EDTA.

Row | Molecule | Degree of Binding to BC2
7 | B7 | exhibit binding to BC2; also recorded: Binds
8 | B8 | exhibit binding to BC2; also recorded: Binds

Tested on: rat carotid artery thrombosis
Experiment: Rat carotid artery thrombosis model, humanized mAbs, Example 8
Assay type: in vivo
Conditions: 3.0 mg/kg i.v. bolus, 60 minutes after onset of injury
Experimental: In order to evaluate the efficacy of humanized anti-Factor IX antibodies in prevention of arterial thrombosis, the rat carotid artery thrombosis model as described above in Example 3 was used. Baseline parameters were established for carotid blood flow, arterial pressure, heart rate, vessel patency and activated partial thromboplastin time (aPTT). Fifteen minutes thereafter, carotid injury was effected for […]. The parameters were determined 60 minutes after onset of carotid injury. Carotid thrombus was also extracted from the carotid artery and weighed.
All agents were administered intravenously 15 minutes before the onset of carotid injury. The following treatments were examined and compared to the anti-Factor IX mAb BC2.

Row | Molecule | effect on aPTT (FIG. 8)
9 | B3 | modest effect
10 | B4 | modest effect
11 | B5 | modest effect
12 | B6 | modest effect
